One molecule from doi:10.1101/2020.02.20.958934 (bioRxiv, 2020) can be followed below.

This experiment has as its target T1, PEBP1 (UniProt P70296 1-187).
T1 sequence (looked up): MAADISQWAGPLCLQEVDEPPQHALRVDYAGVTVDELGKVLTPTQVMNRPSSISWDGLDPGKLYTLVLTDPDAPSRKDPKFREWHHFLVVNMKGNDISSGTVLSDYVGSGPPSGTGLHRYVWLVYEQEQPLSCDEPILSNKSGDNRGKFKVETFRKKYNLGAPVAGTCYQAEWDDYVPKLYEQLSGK
Kind of experiment: ITC. A general note: Isothermal titration calorimetry measures the heat released or taken up as one component is titrated into another.

B1: dendritic cell factor 1 (DCF1) (natural protein)
chain: EAFDSVLGDTASCHRACQLTYPLHTYPKEEELYACQRGCRLFSICQFVDDGLDLNRTKLECESACTEAYSQPDEQYACHLGCQDQLPFAELRQEQLMSLMPRMHLLFPLTLVRSFWSDMMDSAQSFITSSWTFYLQADDGKIVIFQSKPEIQYAPQLEQEPTNLRESSLSKMSYLQMRNSQAHRNYLEEEESDGFLRCLSLNSGWILTTTLVLSVMVLLWICCAAVATAVEQYVPPEKLSIYGDLEFMNEQKLSRYPAPSLVIVRSQTEEHEEAGPLPTKVNLAHSEI
One may read the stoichiometry N as the number of molecules, sites or subunits per partner or assembly. B1: the dH was -329 kcal/mol and the “stoichiometry N” value came out at 0.753 ± 0.0359.
